The source of these data is US20040248196A1 (COMMONWEALTH SCIENTIFIC AND INDUSTRIAL RESEARCH ORGANISATION, published 2004).

Assay [1] concerns the target T1, M 2-EGFR (wild-type N-terminus FLAG-tagged EGF receptor) (human, UniProt P00533 25-1210).
T1 construct: whole, on cells; Stably expressed on BaF/3 cells; also called wt EGFR; wild type EGFR; not shown: N-terminal FLAG tag
Description: Scatchard plot (B/F specific against Bound) of 125I-EGF binding to BaF/3 cells expressing wt EGFR, cold ligand titration, fitted with Radlig; second (low affinity) of two sites.

Assay [2] concerns the target T2, M 2-EGFR E 21A (human, UniProt P00533 25-1210).
T2 construct: whole, on cells; Transiently expressed in 293 cells and stably expressed in BaF/3 cells; also called Glu 21Ala; not shown: N-terminal FLAG tag
As to the kind of experiment: Scatchard plot (B/F specific against Bound) of 125I-EGF binding to BaF/3 cells expressing E21A EGFR, cold ligand titration, fitted with Radlig; first (high affinity) of two sites. The procedure: This was determined in total cell lysates by sequential immunoblotting with anti-phosphotyrosine (top) or anti-EGFR (bottom) antibodies. […] Cross-linking of the EGFR via the extracellular portion was performed at 37° C. to maximize dimer yield. Samples were analyzed by SDS-PAGE on 3-8% gradient gels and immunoblotting with anti-EGFR antibodies.
The isolation and characterisation of stably transfected cell lines expressing wild-type and mutant EGFRs was performed using the II3-dependent murine hemopoietic lineage BaF/3 (Walker et al, 1998, Growth Factors 16, 53-67). Expression vectors containing the appropriate EGFR constructs were transfected individually by electroporation using a Gene Pulser (BioRad) according to manufacturer's instructions. Neomycin-resistant pools were generated by selection in G 418, and cloned by limiting dilution to obtain stable cell lines.

Assay [3] concerns the target T2, M 2-EGFR E 21A. Description: Scatchard plot (B/F specific against Bound) of 125I-EGF binding to BaF/3 cells expressing E21A EGFR, cold ligand titration, fitted with Radlig; second (low affinity) of two sites.
Assay [4] concerns the target T1, M 2-EGFR (wild-type N-terminus …). Description: Scatchard plot (B/F specific against Bound) of 125I-EGF binding to BaF/3 cells expressing wt EGFR, cold ligand titration, fitted with Radlig; first (high affinity) of two sites.

A word on the Kd: it is the free concentration of one partner at which half of the binding sites on the other are occupied at equilibrium, for simple one-to-one binding. Lower therefore signals a tighter complex.

B1: iodinated murine EGF (ligand, UniProt P01132 977-1029, looked up)
chain: NSYPGCPSSYDGYCLNGGVCMHIESLDSYTCNCVIGYSGDRCQTRDLRWWELR
modifications: 125I-iodinated (site not stated)
notes: mature; Unlabelled EGF was used for the cold titration
As to B1, the dissociation constant (Kd) in assay [1] came to 1.1 nM; with M 2-EGFR E 21A [2], 0.045 nM; in the assay with M 2-EGFR E 21A [3], 1.1 nM; in assay [4] it was 0.039 nM.
